# Test results: patent US20150098924A1 (TOPOTARGET SWITZERLAND, published 2015)
# T1: Fas receptor (human, UniProt P25445 26-335)
# T1 sequence (looked up): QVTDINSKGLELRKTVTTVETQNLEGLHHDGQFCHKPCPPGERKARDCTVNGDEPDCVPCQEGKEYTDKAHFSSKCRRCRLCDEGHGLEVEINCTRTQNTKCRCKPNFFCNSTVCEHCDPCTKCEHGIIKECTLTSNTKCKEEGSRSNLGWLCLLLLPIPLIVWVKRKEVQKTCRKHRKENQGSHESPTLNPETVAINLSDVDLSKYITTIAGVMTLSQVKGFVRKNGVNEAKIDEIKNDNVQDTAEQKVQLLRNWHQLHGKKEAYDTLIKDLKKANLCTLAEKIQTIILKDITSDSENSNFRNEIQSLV
# B1: MegaFasL (fusion polypeptide m or hACRP30:hFasL) (ligand)
# chain: QLFHLQKELAELRESTSQMHTASSLEKQIGHPSPPPEKKELRKVAHLTGKSNSRSMPLEWEDTYGIVLLSGVKYKKGGLVINETGLYFVYSKVYFRGQSCNNLPLSHKVYMRNSKYPQDLVMMEGKMMSYCTTGQMWARSSYLGAVFNLTSADHLYVNVSELSLVNFEESQTFFGLYKL
# Target: T1, Fas receptor
# Assay: cell-based or functional assay
Molecule,"IC50 (ng/ml), PESMTS survival assay, ARH-77 cells [ng/mL]","IC50 (ng/ml), PESMTS survival assay, DOHH2 cells [ng/mL]","IC50 (ng/ml), PESMTS survival assay, HL60 (AML-M3) cells [ng/mL]","IC50 (ng/ml), PESMTS survival assay, Jurkat cells [ng/mL]","IC50 (ng/ml), PESMTS survival assay, K562 cells [ng/mL]","IC50 (ng/ml), PESMTS survival assay, NB4 (AML-M3) cells [ng/mL]","IC50 (ng/ml), PESMTS survival assay, Namalwa (ALL-L3) cells [ng/mL]","IC50 (ng/ml), PESMTS survival assay, RPMI-8226 cells [ng/mL]","IC50 (ng/ml), PESMTS survival assay, Raji (ALL-L3) cells [ng/mL]","IC50 (ng/ml), PESMTS survival assay, SC-1 cells [ng/mL]","IC50 (ng/ml), PESMTS survival assay, U266 cells [ng/mL]","IC50 (ng/ml), PESMTS survival assay, OPM2 cells [ng/mL]"
CH11 (antibody),> 10000,> 10000,> 10000,6.58,> 10000,> 10000,> 10000,> 10000,15.8,> 10000,> 10000,–
B1,10.4,1.17,213,0.06,> 10000,16,57,3.57,5.6,> 10000,6.2,2.19
